Reference: publication PMC12408800

Target: KhpB from Thermus thermophilus (Thermus thermophilus HB8)
Test: SEC

Work on “KhpB from Thermus thermophilus (natural protein)” yielded a stoichiometry N of 2.
